The target in the data set is FGF2 (Homo sapiens) (UniProt P09038). Put plainly: cell_activity. The following applies: 5' C6; 3' idT; negative control; HUVEC proliferation, FGF2 0.58 nM.
FGF2 (Homo sapiens), sequence (P09038 135-288): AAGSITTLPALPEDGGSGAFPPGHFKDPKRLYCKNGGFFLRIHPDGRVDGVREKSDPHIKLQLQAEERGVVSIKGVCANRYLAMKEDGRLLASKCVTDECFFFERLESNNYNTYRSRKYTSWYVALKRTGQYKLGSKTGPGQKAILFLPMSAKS

On to “negative control RNA (Macugen sequence without PEG)”, for which the IC50 was > 0.4 µM.

Values taken from patent US20170157165.
